T1: human NLRP1 (full-length) (human, UniProt Q9C000 1-1473, myc or V5 epitope tags in some assays (letters not given, left out); 35S-methionine label in the GST binding assay)
T1 construct: also called NLRP1-myc; NLRP1-V5
T1 sequence: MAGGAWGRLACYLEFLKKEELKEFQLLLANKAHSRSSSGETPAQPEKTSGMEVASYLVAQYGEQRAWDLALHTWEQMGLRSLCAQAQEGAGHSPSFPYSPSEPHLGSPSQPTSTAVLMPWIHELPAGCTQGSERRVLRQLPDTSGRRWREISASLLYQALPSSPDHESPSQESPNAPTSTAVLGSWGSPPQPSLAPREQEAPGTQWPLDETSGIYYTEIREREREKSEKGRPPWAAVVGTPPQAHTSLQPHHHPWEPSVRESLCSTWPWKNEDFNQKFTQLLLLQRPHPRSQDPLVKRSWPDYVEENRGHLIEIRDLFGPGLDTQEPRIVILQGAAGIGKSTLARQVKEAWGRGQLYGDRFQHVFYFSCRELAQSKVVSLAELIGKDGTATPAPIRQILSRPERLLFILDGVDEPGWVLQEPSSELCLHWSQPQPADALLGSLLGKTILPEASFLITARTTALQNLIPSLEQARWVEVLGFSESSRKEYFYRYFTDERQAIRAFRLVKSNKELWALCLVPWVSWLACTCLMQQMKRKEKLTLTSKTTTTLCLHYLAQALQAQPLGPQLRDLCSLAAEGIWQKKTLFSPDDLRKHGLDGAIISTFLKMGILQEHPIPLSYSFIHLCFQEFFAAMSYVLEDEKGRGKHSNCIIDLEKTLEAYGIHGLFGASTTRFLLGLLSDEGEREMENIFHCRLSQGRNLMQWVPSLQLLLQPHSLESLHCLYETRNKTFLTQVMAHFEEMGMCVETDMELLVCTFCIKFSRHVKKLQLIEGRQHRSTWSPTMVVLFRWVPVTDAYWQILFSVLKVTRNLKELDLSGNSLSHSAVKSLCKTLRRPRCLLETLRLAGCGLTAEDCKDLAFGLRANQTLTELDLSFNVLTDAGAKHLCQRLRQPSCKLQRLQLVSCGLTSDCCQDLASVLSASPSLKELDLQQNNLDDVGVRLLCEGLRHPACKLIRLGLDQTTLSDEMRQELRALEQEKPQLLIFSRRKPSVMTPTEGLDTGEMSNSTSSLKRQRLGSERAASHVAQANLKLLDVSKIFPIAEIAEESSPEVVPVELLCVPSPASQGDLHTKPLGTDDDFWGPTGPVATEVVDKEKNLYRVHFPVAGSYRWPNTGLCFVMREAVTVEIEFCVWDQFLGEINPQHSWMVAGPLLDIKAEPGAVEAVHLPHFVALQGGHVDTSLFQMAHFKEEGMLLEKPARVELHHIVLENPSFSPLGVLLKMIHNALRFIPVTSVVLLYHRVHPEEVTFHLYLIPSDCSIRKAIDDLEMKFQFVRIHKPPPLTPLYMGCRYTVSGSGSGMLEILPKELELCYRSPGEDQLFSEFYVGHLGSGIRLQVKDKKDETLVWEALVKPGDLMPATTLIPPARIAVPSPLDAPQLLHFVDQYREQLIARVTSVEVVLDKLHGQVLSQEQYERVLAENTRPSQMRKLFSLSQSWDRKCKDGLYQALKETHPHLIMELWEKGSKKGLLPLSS

T2: NLRP1 (Homo sapiens, UniProt Q9C000)
T2 construct: host or cells: cell-free coupled transcription/translation
T2 sequence (Q9C000 1-1473): T1 sequence

B1: GST-Orf63 (other)
chain: MDGTDALEKLTKGLSGGGGSLHQTKLLMEFQLRGLPVPALLNSSTTEQFLNTVAQLPTDLSKFIRDYRVFALVRAAYFLEPPSSIDPLEAARALGRLVDILSSQPPQNTAPAQPPTSDDTLNNCTLLKLLAHYADQIAGFKTPALPPVPPGIIGLFTCVEQMYHACFQKYWAAALPPMWILTYDPPTSPLQDWLIVAYGNKEGLLLPSGIPSEEVLAKTLVTEHHELFVSRSNSTETAVTMPVSKERALAIYRVFAKGEVVAENTPILAFTDVELSTLKPHYLFIYDFIIEALCKSYTYSCTQARLESFLSRGIDFMTDLGQYLDTATSGKQQLTHSQIKEIKYRLLSCGLSASACDVFRTVIMTLPYRPTPNLANLSTFMGMVHQLTMFGHYFYRCLGSYSPTGLAFTELQKILTRASAEQTERNPWRHPGISDIPLRWKISRALAFFVPPAPINTLQRVYAALPSQLMRAIFEISVKTTWGGAVPANLARDIDTGPNTQHISSTPPPTLKDVETYCQGLRVGDTEYDEDIVRSPLFADAFTKSHLLPILREVLENRLQKNRALFQIRWLIIFAAEAATGLIPARRPLARAYFHIMDILEERHSQDALYNLLDCIQELFTHIRQAVPDAQCPHAFLQSLFVFQFRPFVLKHQQGVTLFLDGLQTSLPPVISLANLGDKLCRLEFEYDSEGDFVRVPVAPPEQPPHVHLSHFKKTIQTIEQATREATVAMTTIAKPIYPAYIRLLQRLEYLNRLNHHILRIPFPQDALSELQETYLAAFARLTKLAADAANTCSYSLTKYFGVLFQHQLVPTAIVKKLLHFDEAKDTTEAFLQSLAQPVVQGQRQGAAGGSGVLTQKELELLNKINPQFTDAQANIPPSIKRSYSNKYDVPEVSVDWETYSRSAFEAPDDELRFVPLTLAGLRKLFVE
modifications: N-terminal GST fusion and C-terminal FLAG tag are not carried by the letters
notes: also called GST-tagged Orf63; purified GST-Orf63 protein; not shown: N-terminal GST of the pGex5p-1 vector with its protease-site linker; C-terminal FLAG tag
B2: GST-Orf63: purified GST-tagged Orf63 fusion protein (protein)
chain: B1 chain
modifications: left off: a dimerising Fc or GST; small tags and cut ends
notes: purified GST-tagged Orf63 fusion protein

Experiments:
[1] = molecular target: T1, human NLRP1 (full-length); test: GST binding assay on glutathione beads with in vitro translated 35S-labeled protein, phosphorimager
NLRP3 = molecular target: T3, NLRP3 (Homo sapiens, UniProt Q96P20); test: GST binding assay with 35S-methionine-labeled NLRP3; settings: purified GST-Orf63 on glutathione beads
T3 construct: primers designed to the open reading frames of procaspase-1, pro-IL-1beta, NOD1, NOD2, and NLRP3; expressed in transfected cells; host or cells: 293T
Procedure: (§1) In-vitro transcription/translation: [^35S]-methionine (Perkin-Elmer) labeled NLRP1, NLRP3 and control luciferase proteins were prepared using TnT T7 Quick Coupled Transcription/Translation System (Promega) according to manufacturer's instructions. pcDNA3-NLRP1 and pcDNA3-NLRP3 plasmids were used for the transcription/translation reaction.
(§2) GST binding Assay: Expression and purification of GST fusion proteins were performed as previously described (29) and equal amounts of GST and GST-Orf63 were bound to glutathione beads (29). Equivalent amounts (1×10^5 cpm) of ^35S-methionine labeled NLRP1, NLRP3 and luciferase proteins were incubated with the GST and GST-Orf63 bound protein in NETN+ buffer plus protease inhibitors for an hour at 4° C. NETN+ buffer comprised of 20 mM Tris (pH 7.5), 100 mM NaCl, 1 mM EDTA, 0.1% NP-40, 1 mM DTT. The bound complexes were washed five times (5 minute washes) in NETN+ buffer. The samples were subjected to SDS-PAGE. The gel was fixed, dried and exposed to a phosphoimager.

NLRP1 = molecular target: T2, NLRP1; test: GST binding assay with 35S-methionine-labeled NLRP1; settings: purified GST-Orf63 on glutathione beads
Procedure: as §1, §2

T3 sequence (Q96P20 whole entry): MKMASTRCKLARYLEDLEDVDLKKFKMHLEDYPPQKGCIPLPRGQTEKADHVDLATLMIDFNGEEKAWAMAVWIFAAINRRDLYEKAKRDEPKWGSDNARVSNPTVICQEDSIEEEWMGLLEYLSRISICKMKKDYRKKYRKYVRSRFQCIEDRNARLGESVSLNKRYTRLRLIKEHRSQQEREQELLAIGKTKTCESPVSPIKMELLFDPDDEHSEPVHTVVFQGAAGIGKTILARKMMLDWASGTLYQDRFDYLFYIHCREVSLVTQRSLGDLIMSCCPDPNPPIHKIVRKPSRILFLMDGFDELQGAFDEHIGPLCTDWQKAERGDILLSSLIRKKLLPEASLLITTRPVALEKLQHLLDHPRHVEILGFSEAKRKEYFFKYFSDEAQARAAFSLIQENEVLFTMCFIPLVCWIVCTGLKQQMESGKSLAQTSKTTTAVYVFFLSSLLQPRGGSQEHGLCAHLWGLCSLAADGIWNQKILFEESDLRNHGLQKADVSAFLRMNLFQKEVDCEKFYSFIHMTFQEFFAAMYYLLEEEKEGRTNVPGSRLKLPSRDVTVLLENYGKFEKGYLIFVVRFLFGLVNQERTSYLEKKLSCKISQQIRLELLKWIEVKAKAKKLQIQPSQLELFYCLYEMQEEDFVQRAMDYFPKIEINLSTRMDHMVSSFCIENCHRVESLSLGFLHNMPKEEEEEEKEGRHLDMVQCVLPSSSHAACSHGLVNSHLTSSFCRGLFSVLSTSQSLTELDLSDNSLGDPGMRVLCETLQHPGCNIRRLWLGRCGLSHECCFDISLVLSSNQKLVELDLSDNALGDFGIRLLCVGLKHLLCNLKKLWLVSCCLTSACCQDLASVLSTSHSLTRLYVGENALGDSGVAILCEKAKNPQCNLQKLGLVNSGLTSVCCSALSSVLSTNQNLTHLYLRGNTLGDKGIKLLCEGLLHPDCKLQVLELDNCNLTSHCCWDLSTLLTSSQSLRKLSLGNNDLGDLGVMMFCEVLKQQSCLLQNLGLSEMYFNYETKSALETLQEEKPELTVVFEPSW

| Molecule | binding result [1] | binding of 35S-methionine-labeled NLRP3 (NLRP3) | binding of 35S-methionine-labeled NLRP1 (NLRP1) |
| --- | --- | --- | --- |
| B1 | binds | – | – |
| B2 | – | bound | bound |

Reference: patent US20130225479A1, “Methods and Compositions for Treating Inflammation” (The University of North Carolina at Chapel Hill, priority 2010, published 2013)
